Laboratory results from article PMC3500696.
Like-named read-outs stand apart in the source and are kept apart here.

Experiments:
[1] = biological target: porcine CSF-1R expressed in Ba/F3 cells (pig)
[2] = biological target: porcine CSF-1R expressed in Ba/F3 cells (pig); remark: listed apart in the source

Molecule: bacterially produced porcine CSF-1 (active fragment Ser36-Arg189) (ligand)
- EC50, MTT cell viability assay, Ba/F3 cells expressing porcine CSF-1R [1]: 0.029 mg/L

Molecule: recombinant human CSF-1 (from UniProt P09603 33-554) (ligand)
- EC50, MTT cell viability assay, Ba/F3 cells expressing porcine CSF-1R (compared with bacterially produced porcine CSF-1) [1]: 0.034 mg/L
- EC50, MTT cell viability assay, Ba/F3 cells expressing porcine CSF-1R (compared with rhIL-34) [2]: 0.1 mg/L

B1: recombinant human Interleukin 34 (ligand)
chain: NEPLEMWPLTQNEECTVTGFLRDKLQYRSRLQYMKHYFPINYKISVPYEGVFRIANVTRLQRAQVSERELRYLWVLVSLSATESVQDVLLEGHPSWKYLQEVETLLLNVQQGLTDVEVSPKVESVLSLLNAPGPNLKLVRPKALLDNCFRVMELLYCSCCKQSSVLNWQDCEVPSPQSCSPEPSLQYAATQLYPPPPWSPSSPPHSTGSVRPVRAQGEGLLP
- EC50, MTT cell viability assay, Ba/F3 cells expressing porcine CSF-1R [2]: 0.137 mg/L
